Reference: US20180340025A1 (Novartis, published 2018)

T1: human LAG-3 expressed on cells (human, UniProt P18627 23-525)
T1 construct: whole, on cells; Treated as one protein; the host cell is named under assay; also called LAG-3-expressing CHO cells; LAG-3-transfected CHO cells
T1 sequence (looked up): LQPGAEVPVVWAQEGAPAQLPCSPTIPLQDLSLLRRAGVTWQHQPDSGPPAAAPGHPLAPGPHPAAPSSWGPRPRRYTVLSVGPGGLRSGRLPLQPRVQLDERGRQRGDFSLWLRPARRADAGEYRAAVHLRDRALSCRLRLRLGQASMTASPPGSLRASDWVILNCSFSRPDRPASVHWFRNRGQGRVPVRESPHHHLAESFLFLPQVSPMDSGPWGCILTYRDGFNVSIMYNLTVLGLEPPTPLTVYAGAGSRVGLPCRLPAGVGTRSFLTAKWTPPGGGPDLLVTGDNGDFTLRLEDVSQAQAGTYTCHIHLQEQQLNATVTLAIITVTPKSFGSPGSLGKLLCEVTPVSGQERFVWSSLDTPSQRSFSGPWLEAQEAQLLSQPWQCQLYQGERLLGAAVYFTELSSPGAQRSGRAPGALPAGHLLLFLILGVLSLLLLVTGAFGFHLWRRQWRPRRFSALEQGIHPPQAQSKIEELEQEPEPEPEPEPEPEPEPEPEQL

T2: LAG-3-huIgG1 Fc fusion protein (human, UniProt P18627 23-434, limits assumed)
T2 construct: also called LAG-3-Ig; soluble LAG-3-Ig; not shown: human IgG1 Fc
T2 sequence (looked up): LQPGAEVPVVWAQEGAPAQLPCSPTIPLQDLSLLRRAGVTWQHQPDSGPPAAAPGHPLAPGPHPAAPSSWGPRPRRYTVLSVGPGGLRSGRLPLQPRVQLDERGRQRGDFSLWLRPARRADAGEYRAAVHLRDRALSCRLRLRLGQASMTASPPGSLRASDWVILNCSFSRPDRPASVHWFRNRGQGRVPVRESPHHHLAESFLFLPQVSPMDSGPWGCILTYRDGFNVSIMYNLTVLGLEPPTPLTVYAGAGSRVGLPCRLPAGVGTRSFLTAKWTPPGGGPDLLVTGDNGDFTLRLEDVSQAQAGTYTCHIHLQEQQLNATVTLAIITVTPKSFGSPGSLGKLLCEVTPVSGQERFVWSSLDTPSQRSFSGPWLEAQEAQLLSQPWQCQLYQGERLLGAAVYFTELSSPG


Columns and labels:
[1] = target: T1, human LAG-3 expressed on cells; experiment: FACS competition: serial dilutions of the test mAb against a constant concentration of FITC-labeled murine BAP050 on LAG-3-expressing CHO cells; MFI of bound labelled mAb
[2] = target: T1, human LAG-3 expressed on cells; experiment: FACS, human T cells; human T cells
[3] = target: T1, human LAG-3 expressed on cells; experiment: FACS, human LAG-3 transfected 300.19 cells; human LAG-3 transfected 300.19 cells
[4] = target: T1, human LAG-3 expressed on cells; experiment: FACS, human LAG-3 transfected CHO cells; human LAG-3 transfected CHO cells
[5] = target: T2, LAG-3-huIgG1 Fc fusion protein; experiment: competition binding assay, LAG-3-Ig binding to MHC class II on Raji cells

Binder	binding result [1]	other results
BAP050-hum05-Ser (antibody, human IgG4 S228P, kappa, C84S in VHFW3 of BAP050-hum05; IgG4(S228P)/kappa; also called clone No. 5S; huBAP050(Ser) clone) heavy: not shown light: EIVLTQSPATLSLSPGERATLSCSSSQDISNYLNWYQQKPGKAPKLLIYYTSTLHLGVPSRFSGSGSGTDFTFTISSLEAEDAATYYCQQYYNLPWTFGQGTKVEIKRTVAAPSVFIFPPSDEQLKSGTASVVCLLNNFYPREAKVQWKVDNALQSGNSQESVTEQDSKDSTYSLSSTLTLSKADYEKHKVYACEVTHQGLSSPVTKSFNRGEC	binds	–
murine anti-LAG-3 monoclonal antibody BAP050 (antibody, V domains shown, also called murine mAb; parent murine mAb) VH: QIQLVQSGPELKKPGETVKISCKASGFTLTNYGMNWVRQTPGKGLKWMGWINTDTGEPTYADDFKGRFAFSLETSASTASLQINNLKNADTATYFCARNPPYYYGTNNAEAMDYWGQGTAVTVSS VL: DIQMTQTTSSLSASLGDRVTISCSSSQDISNYLNWYQQKPDGTVKVLIYYTSTLHLGVPSRFSGSGSGTDYSLTISNLELEDIATYYCQQYYNLPWTFGGGTKLEIK	–	Kd [2]: 0.26 nM; Kd [3]: 13.6 nM; Kd [4]: 0.2 nM; IC50 [5]: 2.3 nM
BAP050-hum02-Ser (antibody, human IgG4 S228P, kappa, V domains shown, C84S in VHFW3 of BAP050-hum02; IgG4(S228P)/kappa; also called clone No. 2S; huBAP050(Ser) clone) VH: EVQLVQSGAEVKKPGATVKISCKVSGFTLTNYGMNWVRQAPGQGLEWMGWINTDTGEPTYADDFKGRFVFSLDTSVSTAYLQISSLKAEDTAVYYCARNPPYYYGTNNAEAMDYWGQGTTVTVSS VL: DIQMTQSPSSLSASVGDRVTITCSSSQDISNYLNWYQQKPGKAPKLLIYYTSTLHLGIPPRFSGSGYGTDFTLTINNIESEDAAYYFCQQYYNLPWTFGQGTKVEIKR	binds	–
BAP050-hum12-Ser (antibody, human IgG4 S228P, kappa, V domains shown, C84S in VHFW3 of BAP050-hum12; IgG4(S228P)/kappa; also called huBAP050(Ser) clone) VH: QVQLVQSGAEVKKPGASVKVSCKASGFTLTNYGMNWVRQARGQRLEWIGWINTDTGEPTYADDFKGRFVFSLDTSVSTAYLQISSLKAEDTAVYYCARNPPYYYGTNNAEAMDYWGQGTTVTVSS VL: EIVLTQSPDFQSVTPKEKVTITCSSSQDISNYLNWYQQKPGQAPRLLIYYTSTLHLGVPSRFSGSGSGTDFTLTISSLQPEDFATYYCQQYYNLPWTFGQGTKVEIKR	binds	–
BAP050-hum11-Ser (antibody, human IgG4 S228P, kappa, V domains shown, C84S in VHFW3 of BAP050-hum11; IgG4(S228P)/kappa; also called clone No. 11S) VH: QVQLVQSGAEVKKPGASVKVSCKASGFTLTNYGMNWVRQARGQRLEWIGWINTDTGEPTYADDFKGRFVFSLDTSVSTAYLQISSLKAEDTAVYYCARNPPYYYGTNNAEAMDYWGQGTTVTVSS VL: DIQMTQSPSSLSASVGDRVTITCSSSQDISNYLNWYLQKPGQSPQLLIYYTSTLHLGVPSRFSGSGSGTEFTLTISSLQPDDFATYYCQQYYNLPWTFGQGTKVEIKR	binds	–

Further lines, with some results ahead:

binding result [1]	Binder	other results
binds	BAP050-hum09-Ser (antibody, human IgG4 S228P, kappa, V domains shown, C84S in VHFW3 of BAP050-hum09; IgG4(S228P)/kappa; also called clone No. 9S; huBAP050(Ser) clone) VH: QVQLVQSGAEVKKPGASVKVSCKASGFTLTNYGMNWVRQARGQRLEWIGWINTDTGEPTYADDFKGRFVFSLDTSVSTAYLQISSLKAEDTAVYYCARNPPYYYGTNNAEAMDYWGQGTTVTVSS VL: DIQMTQSPSSLSASVGDRVTITCSSSQDISNYLNWYQQKPGKAPKLLIYYTSTLHLGIPPRFSGSGYGTDFTLTINNIESEDAAYYFCQQYYNLPWTFGQGTKVEIKR	–
binds	BAP050-hum13-Ser (antibody, human IgG4 S228P, kappa, V domains shown, C84S in VHFW3 of BAP050-hum13; IgG4(S228P)/kappa; also called clone No. 13S (printed 135); huBAP050(Ser) clone) VH: QVQLVQSGAEVKKPGASVKVSCKASGFTLTNYGMNWVRQAPGQGLEWMGWINTDTGEPTYADDFKGRFVFSLDTSVSTAYLQISSLKAEDTAVYYCARNPPYYYGTNNAEAMDYWGQGTTVTVSS VL: DIQMTQSPSSLSASVGDRVTITCSSSQDISNYLNWYQQKPGKAPKLLIYYTSTLHLGIPPRFSGSGYGTDFTLTINNIESEDAAYYFCQQYYNLPWTFGQGTKVEIKR	–
